Changes are numbered by the printed parent chain. Names and notes keep the numbering of the source.
B1: EsOgl (Exiguobacterium artemiae 255-15; A109P/E176P/K441P/S130P) (protein)
chain: MERKWWHDSVVYQIYPRSFNDSNGDGIGDLVGIIEKLDYLKELGIDVIWLSPVYDSPNDDNGYDIRDYEAIMSEFGTMADFDRLLDQAHERGIKIVMDLVINHSSDEHPWFAESRKSKDNPYRDYYIWRPANEDGTLPNNWGSIFSGPAWELDEATNEYYLHLFSKKQPDLNWENPKLRQEVYQMITRWLDRGIDGFRMDVINLISKTPGLPDATVPPGALYGDGGQHYINGPRIHEFLKEMNDASFGNYDVLTVGEMPGATTDDAILYTDPERKEVNMVFTFEHMDLDSGPGGKWDVKPFDLQKLKENFTKWQVALHEKGWNSLYWNNHDQPRVVSRFGNDTTYRVESAKMLATLLHLLKGTPYIYQGEEIGMTNVAFESIEDYEDIEIRNMWKERTEQGASPAELLRAVHVKGRDNARTPIQWDATEHAGFTTGTPWLPVNPNYPTINVEQALEDPDSIFYYYKQLIALRHQHDVIVYGEYALILEEETDIYAYTRTYENETWYIYCSFSQEEVTVPLSHDTSDPVIGNYSESPAGSKEELVLRPYEAIVYRTTR
B2: EsOgl (Exiguobacterium artemiae 255-15; A109P/S130P) (protein)
chain: B1 chain with P176E, P441K
B3: EsOgl (Exiguobacterium artemiae 255-15; A109P/E176P/S130P) (protein)
chain: B1 chain with P441K
B4: EsOgl (Exiguobacterium artemiae 255-15; S130P) (protein)
chain: B1 chain with P109A, P176E, P441K
B5: EsOgl (Exiguobacterium artemiae 255-15) (protein)
chain: B1 chain with P109A, P130S, P176E, P441K
B6: EsOgl (Exiguobacterium artemiae 255-15; K441P) (protein)
chain: B1 chain with P109A, P130S, P176E
B7: EsOgl (Exiguobacterium artemiae 255-15; E176P) (protein)
chain: B1 chain with P109A, P130S, P441K
B8: EsOgl (Exiguobacterium artemiae 255-15; A109P) (protein)
chain: B1 chain with P130S, P176E, P441K

substrate: O=[N+]([O-])c1ccc(O[C@H]2O[C@H](CO)[C@@H](O)[C@H](O)[C@H]2O)cc1; test: purified protein; details: 33 mM potassium phosphate pH 7.0, 25 °C

Row | Protein | Km [µM] | kcat/Km [M⁻¹ s⁻¹]
1 | B1 | 850 ± 20 | 167000
2 | B2 | 1370 ± 40 | 167000
3 | B3 | 920 ± 70 | 217000
4 | B4 | 1660 ± 60 | 250000
5 | B5 | 1060 ± 20 | 233000
6 | B6 | 930 ± 80 | 183000
7 | B7 | 1970 ± 80 | 167000
8 | B8 | 1430 ± 90 | 167000

Source: publication PMC8392543
